From PMC9190012, “Heparin activation of protein Z-dependent protease inhibitor (ZPI) allosterically blocks protein Z activation through an extended heparin-binding site” (The Journal of Biological Chemistry, 2022)

How the values were obtained:
Format in all cases: biochemical
FXa [1] = target: T1, FXa (Homo sapiens, UniProt P00742); test: PZ-accelerated ZPI–FXa reactions: kinetics and stoichiometry of inhibition; conditions: for SI / ka,app × SI / ka,app × SI relative to WT: PZ-accelerated; for ka,app: equimolar PZ, 25 μM phospholipid, 5 mM CaCl2, pH 7.4, 25 °C; for PZ enhancement: ratio of PZ-accelerated to unaccelerated ka,app × SI
T1 construct: purchased Enzyme Research Laboratories
Method: (§1) Apparent second-order rate constants for unaccelerated and H50-accelerated ZPI–FXa reactions were measured in the absence and presence of the optimal H50 concentration under pseudo–first-order conditions by analyzing full ZPI–FXa reaction progress curves over the ZPI concentration range of 10 to 900 nM with ∼0.5 nM FXa. Full reaction progress curves were also measured for ZPI–FXa reactions in the presence of PZ equimolar with ZPI, 25 μM lipid, and 5 mM CaCl2, as a function of the ZPI concentration in the range of 10 to 40 nM. Identical reaction mixtures were quenched at varying reaction times with substrate, and the time course of protease inactivation was measured from the decrease in initial rates of substrate hydrolysis. The first-order rate of decrease in protease activity with time was computer fit by a single exponential decay function with a nonzero end point and kobs obtained from the fitted exponential decay constant. Apparent second-order association rate constants (ka,app) were obtained from the slopes of linear plots of kobs versus the ZPI concentration according to the equation, kobs=kd+ka,app × [ZPI]0
(§2) In which kd represents the rate constant for ZPI–FXa complex dissociation and [ZPI]o is the total ZPI concentration. kd was fixed at the experimentally determined value of 10^−4 s^−1 for WT and ZPI mutants as described ([18]).
(§3) Fixed concentrations of FXa (50–100 nM FXa) were reacted with increasing concentrations of ZPI, ranging from a approximately threefold to sevenfold molar excess, in the absence of cofactors or in the presence of either 1 μM H50 or PZ equimolar with ZPI, 25 μM lipid, and 5 mM CaCl2, in kinetics buffer at 25 °C in reaction volumes of 50 μl. After allowing sufficient time to reach a reaction end point, based on measured second-order associate rate constants (∼5–30 min), remaining proteolytic activity was measured by reacting an aliquot (5–20 μl) of the reaction mixtures with 1 ml of 100 μM Spectrozyme fXa (American Diagnostica) containing 50 μg/ml Polybrene and 5 mM EDTA and monitoring the rate of absorbance change at 405 nm. The apparent SI was determined from the fitted abscissa intercept of a linear plot of residual protease activity against the molar ratio of inhibitor to protease ([18]). Because the ZPI–PZ complex dissociates to a small extent over the reaction time, apparent SIs depend on the time of incubation. To correct for such complex dissociation, apparent SIs were multiplied by the factor, exp (−kd × t), where kd is the measured complex dissociation rate constant of 10^−4 s^−1 and t the fixed reaction time. Simulations verified the validity of this correction for small extents of dissociation. Reported SIs are average values of at least two independent measurements at different reaction times.

FXa [2] = target: T1, FXa; test: H50 heparin-accelerated ZPI–FXa reactions: kinetics and stoichiometry of inhibition; conditions: for SI / ka,app × SI / ka,app × SI relative to WT: 1 μM H50; for ka,app: 1 μM H50, 2.5 mM CaCl2, pH 7.4, 25 °C; for H50 rate enhancement: ratio of heparin-accelerated to unaccelerated ka,app × SI
Method: Heparin accelerating effects on the kinetics of ZPI–FXa reactions were evaluated as a function of heparin concentration under pseudo–first-order conditions (i.e., with a large molar excess of inhibitor over protease) by incubating reaction mixtures of 100 μl containing 70 nM ZPI and ∼0.5 nM FXa in the absence or presence of varying levels of H50 ranging from 10^−9 to 10^−4 M in 20 mM Tris buffer (pH 7.4), 0.1 M NaCl, 0.1% PEG 8000, 0.1 mg/ml BSA, and 2.5 mM CaCl2 at 25 °C for reaction times of 2 to 5 min. Reactions were quenched by adding 1 ml of 50 μM Pefafluor FXa substrate (Centerchem, Inc) containing 50 μg/ml polybrene and 5 mM EDTA. The initial linear rate of substrate hydrolysis was monitored at an excitation wavelength of 380 nm and an emission wavelength of 440 nm. The observed pseudo–first-order rate constant for reactions (kobs) was calculated from the equation, kobs=In([vo-v∞]/[vt-v∞])/t
where vt and v∞ are the initial velocities of protease hydrolysis of the substrate after reaction with ZPI for the fixed reaction time and after reaching the reaction end point, respectively, vo is the velocity measured in control reactions without ZPI, and t is the fixed reaction time. The dependence of kobs on heparin concentration was computer fit by nonlinear least squares analysis by the ternary complex bridging model equation ([10]).
as §1, §2
as §3, with “Simulations verified the validity of this correction for small extents of dissociation. Reported SIs are average values of at least two independent measurements at different reaction times.” left out

FXa [3] = target: T1, FXa; test: Unaccelerated ZPI–FXa reactions: kinetics and stoichiometry of inhibition; conditions: for ka,app: absence of PZ, 2.5 mM CaCl2, pH 7.4, 25 °C
Method: as §1, §2, §3

T1 sequence (P00742 235-488 limits assumed): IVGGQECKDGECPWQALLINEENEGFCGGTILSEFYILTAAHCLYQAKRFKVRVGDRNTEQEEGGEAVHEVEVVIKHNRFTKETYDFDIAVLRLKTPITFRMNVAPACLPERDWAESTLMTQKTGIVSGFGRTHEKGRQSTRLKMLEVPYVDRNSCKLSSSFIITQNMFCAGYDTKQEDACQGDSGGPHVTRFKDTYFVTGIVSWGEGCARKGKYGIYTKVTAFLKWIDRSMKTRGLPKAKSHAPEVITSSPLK
T1 sequence (P00742 41-179 limits assumed): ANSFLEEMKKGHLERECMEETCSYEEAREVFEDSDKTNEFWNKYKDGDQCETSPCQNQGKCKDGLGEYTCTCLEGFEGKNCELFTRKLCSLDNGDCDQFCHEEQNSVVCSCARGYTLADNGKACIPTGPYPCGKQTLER

| SI (FXa [1]) [moles ZPI/mole FXa] | ka,app × SI (FXa [1]) | ka,app × SI relative to WT (FXa [1]) | ka,app (FXa [1]) | PZ enhancement (FXa [1]) | SI (FXa [2]) [moles ZPI/mole FXa] | ka,app × SI (FXa [2]) | ka,app × SI relative to WT (FXa [2]) | ka,app (FXa [2]) | H50 rate enhancement (FXa [2]) [fold] | SI (FXa [3]) [moles ZPI/mole FXa] | ka,app × SI (FXa [3]) | ka,app × SI relative to WT (FXa [3]) | ka,app (FXa [3]) | Molecule |
| --- | --- | --- | --- | --- | --- | --- | --- | --- | --- | --- | --- | --- | --- | --- |
| 2.2 ± 0.1 | 1.8 ± 0.3 × 10^7 M^−1 s^−1 | (0.41) | 8.4 ± 1.2 × 10^6 M^−1 s^−1 | 692 | 4.6 ± 0.1 | 3.9 ± 0.2 × 10^6 M^−1 s^−1 | (3.2) | 8.3 ± 0.4 × 10^5 M^−1 s^−1 | 150 | 3.6 ± 0.3 | 2.6 ± 0.2 × 10^4 M^−1 s^−1 | (1.6) | 7.3 ± 0.1 × 10^3 M^−1 s^−1 | D298K/E301R/T302K/T309K: ZPI mutant with the helix H heparin-binding site of PCI grafted onto homologous ZPI residues (protein, UniProt Q9UK55 22-444, looked up, variant D298K E301R T302K T309K) Protein Z-dependent protease …: LAPSPQSPETPAPQNQTSRVVQAPKEEEEDEQEASEEKASEEEKAWLMASRQQLAKETSNFGFSLLRKISMRHDGNMVFSPFGMSLAMTGLMLGATGPTETQIKRGLHLQALKPTKPGLLPSLFKGLRETLSRNLELGLTQGSFAFIHKDFDVKETFFNLSKRYFDTECVPMNFRNASQAKRLMNHYINKETRGKIPKLFDEINPETKLILVDYILFKGKWLTPFDPVFTEVDTFHLDKYKTIKVPMMYGAGKFASTFDKNFRCHVLKLPYQGNATMLVVLMEKMGDHLALEDYLTTKLVRKWLRNMKKRNMEVFFPKFKLDQKYEMHELLRQMGIRRIFSPFADLSELSATGRNLQVSRVLQRTVIEVDERGTEAVAGILSEITAYSMPPVIKVDRPFHFMIYEETSGMLLFLGRVVNPTLL |
| 3.1 ± 0.1 | 2.1 ± 0.2 x 10^7 M^−1 s^−1 | (0.48) | 6.9 ± 0.5 × 10^6 M^−1 s^−1 | 3359 | 2.8 ± 0.1 | 3.5 ± 0.4 × 10^5 M^−1 s^−1 | (0.29) | 1.3 ± 0.1 × 10^5 M^−1 s^−1 | 55 | 2.7 ± 0.5 | 6.4 ± 1.3 × 10^3 M^−1 s^−1 | (0.40) | 2.4 ± 0.1 × 10^3 M^−1 s^−1 | R263A: ZPI helix H site mutant (protein, UniProt Q9UK55 22-444, looked up, variant R263A) Protein Z-dependent protease …: LAPSPQSPETPAPQNQTSRVVQAPKEEEEDEQEASEEKASEEEKAWLMASRQQLAKETSNFGFSLLRKISMRHDGNMVFSPFGMSLAMTGLMLGATGPTETQIKRGLHLQALKPTKPGLLPSLFKGLRETLSRNLELGLTQGSFAFIHKDFDVKETFFNLSKRYFDTECVPMNFRNASQAKRLMNHYINKETRGKIPKLFDEINPETKLILVDYILFKGKWLTPFDPVFTEVDTFHLDKYKTIKVPMMYGAGKFASTFDKNFACHVLKLPYQGNATMLVVLMEKMGDHLALEDYLTTDLVETWLRNMKTRNMEVFFPKFKLDQKYEMHELLRQMGIRRIFSPFADLSELSATGRNLQVSRVLQRTVIEVDERGTEAVAGILSEITAYSMPPVIKVDRPFHFMIYEETSGMLLFLGRVVNPTLL |
| 2.4 ± 0.1 | 7.2 ± 0.1 x 10^6 M^−1 s^−1 | (0.16) | 3.0 ± 0.2 × 10^6 M^−1 s^−1 | 847 | 1.5 ± 0.1 | 4.8 ± 0.7 × 10^5 M^−1 s^−1 | (0.40) | 3.2 ± 0.2 × 10^5 M^−1 s^−1 | 56 | 2.1 ± 0.1 | 8.5 ± 1.2 × 10^3 M^−1 s^−1 | (0.53) | 4.1 ± 0.4 × 10^3 M^−1 s^−1 | K253A: ZPI helix H site mutant (protein, UniProt Q9UK55 22-444, looked up, variant K253A) Protein Z-dependent protease …: LAPSPQSPETPAPQNQTSRVVQAPKEEEEDEQEASEEKASEEEKAWLMASRQQLAKETSNFGFSLLRKISMRHDGNMVFSPFGMSLAMTGLMLGATGPTETQIKRGLHLQALKPTKPGLLPSLFKGLRETLSRNLELGLTQGSFAFIHKDFDVKETFFNLSKRYFDTECVPMNFRNASQAKRLMNHYINKETRGKIPKLFDEINPETKLILVDYILFKGKWLTPFDPVFTEVDTFHLDKYKTIKVPMMYGAGAFASTFDKNFRCHVLKLPYQGNATMLVVLMEKMGDHLALEDYLTTDLVETWLRNMKTRNMEVFFPKFKLDQKYEMHELLRQMGIRRIFSPFADLSELSATGRNLQVSRVLQRTVIEVDERGTEAVAGILSEITAYSMPPVIKVDRPFHFMIYEETSGMLLFLGRVVNPTLL |
